Numbered stars: 1 amine (or outer) side, 2 acyl side, 3 side chain; on linkers, the order of the positions; unused ones are H or OH. Square brackets hold non-standard residues; d marks the D form. Side chains are listed from the residue outwards. * marks the point of attachment. γGlu = O=C(O)[C@H](CCC(=O)[*:2])N[*:1]; Palmitoyl = CCCCCCCCCCCCCCCC(=O)*; Aib = CC(C)(N)C(=O)O
T1: human GIP receptor (human, UniProt P48546 22-466)
T1 sequence (looked up): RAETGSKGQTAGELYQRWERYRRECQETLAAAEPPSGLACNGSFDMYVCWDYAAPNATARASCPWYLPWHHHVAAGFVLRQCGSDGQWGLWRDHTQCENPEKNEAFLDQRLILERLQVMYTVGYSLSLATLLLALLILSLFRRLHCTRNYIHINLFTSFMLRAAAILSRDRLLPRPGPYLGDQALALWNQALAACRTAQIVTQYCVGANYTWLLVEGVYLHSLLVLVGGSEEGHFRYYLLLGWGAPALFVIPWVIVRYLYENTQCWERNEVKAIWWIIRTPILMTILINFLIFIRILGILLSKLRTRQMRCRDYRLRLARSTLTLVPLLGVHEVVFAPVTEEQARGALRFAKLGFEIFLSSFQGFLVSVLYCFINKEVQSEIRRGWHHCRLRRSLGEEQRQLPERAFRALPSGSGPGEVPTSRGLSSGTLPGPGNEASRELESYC


Legend:
human GIP receptor = biological target: T1, human GIP receptor; assay: cell-based or functional assay
human GLP-1 receptor = human GLP-1 receptor (human, UniProt P43220 24-463); assay: cell-based or functional assay

Row | Binder | EC50, cAMP induction in HEK293 cells expressing human GIP R (human GIP receptor) | EC50, cAMP induction in HEK293 cells expressing human GLP-1 R (human GLP-1 receptor)
1 | H-Y[Aib]EGTFTSDYSIYLDSK([γGlu-Palmitoyl])AAHDFVEWLLRA-NH2 (SMILES CCCCCCCCCCCCCCCC(=O)N[C@@H](CCC(=O)NCCCC[C@H](NC(=O)[C@H](CO)NC(=O)[C@H](CC(=O)O)NC(=O)[C@H](CC(C)C)NC(=O)[C@H](Cc1ccc(O)cc1)NC(=O)[C@@H](NC(=O)[C@H](CO)NC(=O)[C@H](Cc1ccc(O)cc1)NC(=O)[C@H](CC(=O)O)NC(=O)[C@H](CO)NC(=O)[C@@H](NC(=O)[C@H](Cc1ccccc1)NC(=O)[C@@H](NC(=O)CNC(=O)[C@H](CCC(=O)O)NC(=O)C(C)(C)NC(=O)[C@@H](N)Cc1ccc(O)cc1)[C@@H](C)O)[C@@H](C)O)[C@@H](C)CC)C(=O)N[C@@H](C)C(=O)N[C@@H](C)C(=O)N[C@@H](Cc1c[nH]cn1)C(=O)N[C@@H](CC(=O)O)C(=O)N[C@@H](Cc1ccccc1)C(=O)N[C@H](C(=O)N[C@@H](CCC(=O)O)C(=O)N[C@@H](Cc1c[nH]c2ccccc12)C(=O)N[C@@H](CC(C)C)C(=O)N[C@@H](CC(C)C)C(=O)N[C@@H](CCCNC(=N)N)C(=O)N[C@@H](C)C(N)=O)C(C)C)C(=O)O) [Compound 47] | 0.096 nM | 0.14 nM
2 | H-Y[Aib]EGTFTSDYSIYLDSKAAHDFVEWLLRA-NH2 (SMILES CC[C@H](C)[C@H](NC(=O)[C@H](CO)NC(=O)[C@H](Cc1ccc(O)cc1)NC(=O)[C@H](CC(=O)O)NC(=O)[C@H](CO)NC(=O)[C@@H](NC(=O)[C@H](Cc1ccccc1)NC(=O)[C@@H](NC(=O)CNC(=O)[C@H](CCC(=O)O)NC(=O)C(C)(C)NC(=O)[C@@H](N)Cc1ccc(O)cc1)[C@@H](C)O)[C@@H](C)O)C(=O)N[C@@H](Cc1ccc(O)cc1)C(=O)N[C@@H](CC(C)C)C(=O)N[C@@H](CC(=O)O)C(=O)N[C@@H](CO)C(=O)N[C@@H](CCCCN)C(=O)N[C@@H](C)C(=O)N[C@@H](C)C(=O)N[C@@H](Cc1c[nH]cn1)C(=O)N[C@@H](CC(=O)O)C(=O)N[C@@H](Cc1ccccc1)C(=O)N[C@H](C(=O)N[C@@H](CCC(=O)O)C(=O)N[C@@H](Cc1c[nH]c2ccccc12)C(=O)N[C@@H](CC(C)C)C(=O)N[C@@H](CC(C)C)C(=O)N[C@@H](CCCNC(=N)N)C(=O)N[C@@H](C)C(N)=O)C(C)C) [Compound 44] | 0.016 nM | 0.013 nM
3 | H-Y[Aib]EGTFTSDYSKYLDSK([γGlu-Palmitoyl])AAHDFVEWLLSA-NH2 (SMILES CCCCCCCCCCCCCCCC(=O)N[C@@H](CCC(=O)NCCCC[C@H](NC(=O)[C@H](CO)NC(=O)[C@H](CC(=O)O)NC(=O)[C@H](CC(C)C)NC(=O)[C@H](Cc1ccc(O)cc1)NC(=O)[C@H](CCCCN)NC(=O)[C@H](CO)NC(=O)[C@H](Cc1ccc(O)cc1)NC(=O)[C@H](CC(=O)O)NC(=O)[C@H](CO)NC(=O)[C@@H](NC(=O)[C@H](Cc1ccccc1)NC(=O)[C@@H](NC(=O)CNC(=O)[C@H](CCC(=O)O)NC(=O)C(C)(C)NC(=O)[C@@H](N)Cc1ccc(O)cc1)[C@@H](C)O)[C@@H](C)O)C(=O)N[C@@H](C)C(=O)N[C@@H](C)C(=O)N[C@@H](Cc1c[nH]cn1)C(=O)N[C@@H](CC(=O)O)C(=O)N[C@@H](Cc1ccccc1)C(=O)N[C@H](C(=O)N[C@@H](CCC(=O)O)C(=O)N[C@@H](Cc1c[nH]c2ccccc12)C(=O)N[C@@H](CC(C)C)C(=O)N[C@@H](CC(C)C)C(=O)N[C@@H](CO)C(=O)N[C@@H](C)C(N)=O)C(C)C)C(=O)O) [Compound 45] | 0.32 nM | 0.11 nM
4 | H-Y[Aib]EGTFTSDYSIYLEKKAAKEFVEWLLSA-NH2 (SMILES CC[C@H](C)[C@H](NC(=O)[C@H](CO)NC(=O)[C@H](Cc1ccc(O)cc1)NC(=O)[C@H](CC(=O)O)NC(=O)[C@H](CO)NC(=O)[C@@H](NC(=O)[C@H](Cc1ccccc1)NC(=O)[C@@H](NC(=O)CNC(=O)[C@H](CCC(=O)O)NC(=O)C(C)(C)NC(=O)[C@@H](N)Cc1ccc(O)cc1)[C@@H](C)O)[C@@H](C)O)C(=O)N[C@@H](Cc1ccc(O)cc1)C(=O)N[C@@H](CC(C)C)C(=O)N[C@@H](CCC(=O)O)C(=O)N[C@@H](CCCCN)C(=O)N[C@@H](CCCCN)C(=O)N[C@@H](C)C(=O)N[C@@H](C)C(=O)N[C@@H](CCCCN)C(=O)N[C@@H](CCC(=O)O)C(=O)N[C@@H](Cc1ccccc1)C(=O)N[C@H](C(=O)N[C@@H](CCC(=O)O)C(=O)N[C@@H](Cc1c[nH]c2ccccc12)C(=O)N[C@@H](CC(C)C)C(=O)N[C@@H](CC(C)C)C(=O)N[C@@H](CO)C(=O)N[C@@H](C)C(N)=O)C(C)C) [Compound 43] | 0.0091 nM | 0.017 nM
5 | H-Y[Aib]EGTFTSDYSIYLEKK([γGlu-Palmitoyl])AAKEFVEWLLSA-NH2 (SMILES CCCCCCCCCCCCCCCC(=O)N[C@@H](CCC(=O)NCCCC[C@H](NC(=O)[C@H](CCCCN)NC(=O)[C@H](CCC(=O)O)NC(=O)[C@H](CC(C)C)NC(=O)[C@H](Cc1ccc(O)cc1)NC(=O)[C@@H](NC(=O)[C@H](CO)NC(=O)[C@H](Cc1ccc(O)cc1)NC(=O)[C@H](CC(=O)O)NC(=O)[C@H](CO)NC(=O)[C@@H](NC(=O)[C@H](Cc1ccccc1)NC(=O)[C@@H](NC(=O)CNC(=O)[C@H](CCC(=O)O)NC(=O)C(C)(C)NC(=O)[C@@H](N)Cc1ccc(O)cc1)[C@@H](C)O)[C@@H](C)O)[C@@H](C)CC)C(=O)N[C@@H](C)C(=O)N[C@@H](C)C(=O)N[C@@H](CCCCN)C(=O)N[C@@H](CCC(=O)O)C(=O)N[C@@H](Cc1ccccc1)C(=O)N[C@H](C(=O)N[C@@H](CCC(=O)O)C(=O)N[C@@H](Cc1c[nH]c2ccccc12)C(=O)N[C@@H](CC(C)C)C(=O)N[C@@H](CC(C)C)C(=O)N[C@@H](CO)C(=O)N[C@@H](C)C(N)=O)C(C)C)C(=O)O) [Compound 46] | 0.088 nM | 0.048 nM
6 | H-Y[Aib]EGTFTSDYSIYLDKKAAHDFVEWLLSA-NH2 (SMILES CC[C@H](C)[C@H](NC(=O)[C@H](CO)NC(=O)[C@H](Cc1ccc(O)cc1)NC(=O)[C@H](CC(=O)O)NC(=O)[C@H](CO)NC(=O)[C@@H](NC(=O)[C@H](Cc1ccccc1)NC(=O)[C@@H](NC(=O)CNC(=O)[C@H](CCC(=O)O)NC(=O)C(C)(C)NC(=O)[C@@H](N)Cc1ccc(O)cc1)[C@@H](C)O)[C@@H](C)O)C(=O)N[C@@H](Cc1ccc(O)cc1)C(=O)N[C@@H](CC(C)C)C(=O)N[C@@H](CC(=O)O)C(=O)N[C@@H](CCCCN)C(=O)N[C@@H](CCCCN)C(=O)N[C@@H](C)C(=O)N[C@@H](C)C(=O)N[C@@H](Cc1c[nH]cn1)C(=O)N[C@@H](CC(=O)O)C(=O)N[C@@H](Cc1ccccc1)C(=O)N[C@H](C(=O)N[C@@H](CCC(=O)O)C(=O)N[C@@H](Cc1c[nH]c2ccccc12)C(=O)N[C@@H](CC(C)C)C(=O)N[C@@H](CC(C)C)C(=O)N[C@@H](CO)C(=O)N[C@@H](C)C(N)=O)C(C)C) [Compound 42] | 0.007 nM | 0.012 nM
